test: soluble on expression in E. coli; label from the status in PepcDB or PDB records

Sequence	soluble on expression in E. coli
MGSDKIHHHHHHMETVNILGTGSAMVTKCYNTCFTLSNGDEHFLVDTGGGNTILTNLEKLHIGIDKIHNVFISHRHNDHITGIIWIIRAVAQRIINGKYDGDLKIYCCKENIEVINTICKLLLEKKFTKYMGNRIVFSEIYDGCRLKVLDWDIEFFDIKSTKQLQFGFTTVLKSGKKLTFLGDEPYRENLYEYANNSDYIFHEAFCLYSEKDIFKPYEKHHATVKDACENADKLSVKNIILYHTEDKNIEKRKELYIGEGSKFFKGNIIVPDDLETIELK	not soluble
MGSDKIHHHHHHMEVDNKRRHSEDELKQEAVKKIKSQEPNYAYLETVVREKLDFDSEKICCITLSPLNVYCCLVCGHYYQGRHEKSPAFIHSIDENHHVFLNLTSLKFYMLPQNVQILHDGEVQLLNSIKFAAYPTYCPKDLEDFPRQCFDLSNRTYLNGFIGFTNAATYDYAHSVLLLISHMVPVRDHFLLNHFDNQGEFIKRLSICVKKIWSPKLFKHHLSVDDFVSYLKVREGLNLNPIDPRLFLLWLFNKICSSSNDLKSILNHSCKGKVKIAKVENKPEASESVTGKVIVKPFWVLTLDLPEFSPFEDGNSVDDLPQINITKLLTKFTKSRSSSTSTVFELTRLPQFLIFHFNRFDRNSDHPVKNRNQTLVEFSSELEILHVKYRLKANVVHVVIKQPSTDGNAFNGDEKSHWITQLYDNKSEKWIEIDGINTTEREAELLFLKETFIQVWEKQE	not soluble
MGSDKIHHHHHHMEVIHPRCAGVDISKKDAKVCVRIQGRGGRSTTSTITTWGSMTGQILGLKEHLLDEHVDLVVMEATGDYWRPFYYLLEDDGLNIILVNAHDARNVPGRKTDVSDAAWLADLGAHGLVRASFVPPPPIRELRDLTRARTIITQERTREIQRLEKLLEDACIKLSSVASNITGVSGRLILQALIDGQTDPAALAEMAQRRLRSKIPELTQALNGRFTEHHRYMTGLYLHRIDAHTADINDLSARIEAAMEPFRFARELLVSIPGFSTTIAEIFIAETGADMSAFATAGQLASWAGTSPGSNESAGRVKSTKTRPGNRYLKGALGIAALSCAKSKNTYLGARYRRIASRRGPAKALVAVEHSILTAAWHMLTTGELYNDPGADYFTRQTPVKTMARAVRQLESLGYQVILEPLQQTG	not soluble
MGSDKIHHHHHHMEYINEVTINEAIIHVLDNSSEGVVFNEVELELNEETYEYILKHIQKCLKDEELKYAVFNVERNLAKELSQEYLDGKSDIVSVSKELASQLFVIMKSNGNIPSCDLLTAAITTEYGRMLVVLKMDYVKNYTHNIDVVDDKVEINIIPQFIGLPSSGQKIQKCAFIKPIREENNFDLMVIDKNSGKKDEDEYGSNYFINNYLGCKIINNERDLTKTFVKSAEKWTQKNLKDNADAAELVRTSIKKRLKEDDSININEVSDEIFGENKEAKDNFVEFIKKQGIEEKIELDKQWVENKMKRTRLKIDKDIDLYINEETYNDSSRFEIKRNGDGTINMIIKQVRNYVEK	not soluble
MGSDKIHHHHHHMFEIKTDDFEGIEIVKLINTVSGEYASIIPSFGGNIHELVLQKHNILHDVIYTNKNKEELSGFYSNLYRGAKLNPFSNRIDKGSYIFENISYSIPLNDAGIHALHGFVWNKPFSITASKTSFEFATLTLSYTHPKDSADFPFSYTLLVTYKLCIEGLMVTTQITNTSPTAIPMGDGWHPYLTLGSSINTLKLQIPSVQKIETTDTLIPTGKIIEDISFFEPALLGERELDNAFVLDSSVEKAETLLFDEEEDLTLVVWQQTDTYPFVHVYTPSDRMSVAIEPCSAIPDAFNRNMIETTLKPAEKKSYVFGIQLR	not soluble
MGSDKIHHHHHHMFEKRVLKIKGGSNFRDLGGYQTHDGKKILWGRLFRGSALNNFTNHDLRVLKRRHINTIIDFRSLDESLNDPDIYPETSNDIRLTVLDQDTTYSTITPEEFHRLSHSNGFAYKQMMNTYRRLITDEFSQQAYRQFFDYLLNQDDGAILFHCTKGKDRTGIATALFFLAVGIDKKTIFQDYLLTDTYNHEQTEVELERMVERGEDDDDIDNVKHFLLTDRNYLENAFAAMDEIAGSPQAYLKKYLGLSDEKIQILRNKYLS	not soluble
MGSDKIHHHHHHMFEWVEKISFSEASPLTAQAQDNKFGFHRKRPEVMAHSHWHGHIEINYLFDCSADYLINGQEISVPEGRMIIFWASIPHQMTACHGDGEIVNIYIPLQAFLTWMLPGEFVSQLLHGEVMVSDSLYVCDRQLTQIWEADIASQEPLLASQVINEIRNRIRRMAIEHYSTFNLAHRSGHGVDKPVFGGLNHIQTMLRYIADHYDQKITIENVAMSTGLHKNYAMKLFNRVMKVSIKQYINQLRLQHAQALLIDTENPVLNIALEAGFGSVSRFYDIFQREFNMSPLEFRRRVG	not soluble
MGSDKIHHHHHHMFGLIPKEEKFFAMFKDMAANIVTGGKLLKQMLDSYDDPQASQKKIKDVEHACDAITHDIIQKLNKSFVTPFDREDIYALAAALDDIVDLIDASAQRFIMYNVEKPTPEAKELAFLILQGCLAIEKAVSHLGEKFEHIAEHCVEVNALENEADRVCREAISRLFDEEKDPIQLIKWKEIYETLERATDKCEDAANILESVVVKNA	not soluble
MGSDKIHHHHHHMFIENYCPISADRISFTRQQGSDFAKQVADDFNPLHNIDAKRFCVPGDLLFSIIIAKSGLHKNMTFDFSGMVSDDVHLTFPQEIDESFDIKDDKDKTCLSVHVSGDKTHESVLINALTKAYVDFSGHTFPDILVKLMADNSVMINPARPMVMYQSMSIDLHTLTAETVTLKLAKTSLSIEGKRGDAWLEFDLLSNDKVIGHGKKHMLLSGLRTYEQETIDAMVNQYRDSKKNYQA	not soluble
MGSDKIHHHHHHMFNESDAPQPPKVLSTPLEIAANLRQLQESHDPLIITFHDRSHRFQSYVVHVDRESNTLALDEMIPRDGEKFIENGEHFRVEGFHDGVRIAWECDHALKISEVDGHRCYSGPLPQEVTYHQRRNAFRAALKLSQLVDIILDGAHLKGNGAMRGKLLDISATGCKLRFEGNVEDRLQLGQVYERFKAGNPLGLVDTMVELRHLHYEERINTTFAGVRFHNLSGQAQRKIESFVYQLQREARRFDKDDY	not soluble
MGSDKIHHHHHHMFNLKPELVARLERVLTSVEMLLPRPTAPVDWSVCHAASWRRHSFSGYLEPVRQTDTVTLPELLGIEKQKEVMTNNTLQFLRGLPANNALLWGSRGTGKSSLVKALLNEYAAQGLRIVQVEKEDLIYLSEIFAAVENEPYRFILLCDDLSFEVGELSYKMLKSALDGSVYSAPENVLIYVTSNRRHLIPEYESDNVGWKYVNGELQQSEAMEEKISLSDRFGLWVAFHVFSQDRYLEAVRLCIEREARQRRVEIPWAKEIEREAIQWSHDKSKRCGRTAFQFSRHWVGRYLLGGR	not soluble
MGSDKIHHHHHHMFTPRGFKFAGVHCKIKRKRKDLGIIFSEVPCVAAGVFTTNVVKAAPVIYDMEILKKNPNGIKAVVVNSGVANACTGEQGMINARRMAEKTAEELGVPVESVLVSSTGVIGVQLPMDKVENGIEEAARVLSNDPLPFAEAIMTTDTKVKMHSTKVMIDGKEITVLGIAKGSGMIHPNMATMLSFITTDAKISEEALKKLLKLSVDDSYNMIDVDGDTSTNDMVIVLANGLAGNTTIQPETDGFWKLYEAVHEVNQVLAEKIVEDGEGATKVMEVHVINAPDIKSARLIARSIVSSNLVKTAIYGEDANWGRVIAAAGYSGATFDPEKLDLFFESEAGRIKVAENGQGVSFDEEEAKKILSEKKIRIILDMKQGKETAKAWGCDLTEKYVEINGRYRT	not soluble
MGSDKIHHHHHHMFVQARIDTTQDALVWPVVEFQGWVAFFGQRDSFDVYLNGDRVDNVHTVARPDVEEVLGAGWASIGWHVVCDIGQSARDNGHAIIFDVRVRTQTVAQGCFRYKDRLETTTQPLKIILHMPKTGGTSLRLALEEHRKNLFLLPLYHRDFSAIKSLSSLSVDRLDVAYGHVLYGIHEQIARPVTYMTVLRNPYDFVTSLYFFAKYVQRDHSILAAENIVDAVNTVNRPEFDNYYTRTIAGIQPEEPVTEEDLQRAIKNIDTHFSFIGLAERSRQSFRIFSEVFGLPLRYLKENVTPDLVEREFMNFRSVNEEIKKCINLDLILYKYAIKKFWYMDIE	not soluble
MGSDKIHHHHHHMFVWHEYENAAEAAQSLADAVADALQGALDEKGGAVLAVSGGRSPIAFFNALSQKDLDWKNVGITLADERIVPTNHADSNTGLVREYLLKNKAAAAVWIPMVEDGKTETELHPDAVVDYALKHYKQPDVLILGMGNDGHTASIFPKAPQFQTAIDGSAGVALVHTTPVTAPHERISMTLDAIAHTGHVFLAIQGEEKKAVFDQAAQGENREYPISLVLNHQGVNCHVFYAE	not soluble
MGSDKIHHHHHHMFWFKNVMIYRLTNALQLASNELEPLLQQHRFIGCSQSEMSKFGWTAPLAKTEQLHFCHTKQFLLISHKEDKLLPANVIKAETEERIALLEEKENRKLKKTEKQAIKDDVIAMLLPRAFSKHQFTAIWLDLDAQLVYVDAASSKRAEASLALLRKTLGSLPVVPLSFVQLPAEVMTNWLAKGHTPNWLTLLEEAELKSFETESVIRCKKQELESDEICYHLQAGKLVTKLAIEWENHFSCVLNNDATLTRLKFAGEIIEKNDDILKEDIAQRLDADFLLMTEELRLFTQKLIEEFGGIKE	not soluble
MGSDKIHHHHHHMGCKSVYADSCWISSPTLNFGSVNTQQVSSKTDLDVTCNQYNNVKTSFNLCFYIEDNSPLGINPRRLISLSWPFDYLNYDLYYDPSFSRMIDNKAAPNNLLCKSLQIENNGQQTVQIPIYGKVYANQNVKADNYQSYNMTVKLLYKSKTGDVVPSVEETLAQQNMVQNYMKTTTKFENSCAVVGVNTLDFGSIISLNQPIYGQTSIQLKCPTNTALKVGLDTGLYASGTQRRMTNAGQFIQYDLYQDSAYSIAWGTSDNSVLKLDTYQPVFTIPVYGRILPQNQNLKAGEYRDTITIKLTY	not soluble
MGSDKIHHHHHHMGDKVLKIGSVHQCNCCMGSKTLHPLVSVIDLSKADLSSHTDFKFGFYTILLSECKCEAYRYGHQYYDFSDGTLLCLTPGESISMKDSDNTRPSKGWILAFHPDLICGTALGANIRDYTFFSYRPEEALHVSLREKQVILELLDKINEELQRCIDCYSQKIISKYIELLLDYCERFYERQFITRNEANKKIIERFDRLLDDHFNTIQSQSSDLPTIEECVRVLRLSPAYFNDLLEYETGKSYKEYLQFKRFEIAKEWLINTDKTLSQIAQELGFRNPQYFSRLFKKITGCLPNDFKMPN	not soluble
MGSDKIHHHHHHMGENMKILISVCGEGFGHTTRCVAIGEALKNDYEISYIAYGKSKNFIEKYGFKVFETFPEIKLKGKDGKFDITSSILNKEYSPKKAIRREINIIREYNPDLIISDCKYSTVVAAKLLKKPVICISNQNYTRYKLKTDLIVYPTMKALNIINERCERFIVPDFPLPYTICEYNLKIIKNMEFIGPLIRYDVDDVDNYGEDYILSVIGGFEYRYKILEELGKIALKNNLNVKLVCGSYEVAKKLMRDLNLNSYKNENVEIIPITTNMKELIKNAELIVSHGGHSTIMEALSFGKPLIVIPDLDHPEQGNNAKKVHDLGCGIALSYKELYRLEEAILDIRNMKMYKRNASKMKELAKKYDGKKNIKKIIDEFFETRKNIRKYYLTDRIANKLINKFKLKIR	not soluble
MGSDKIHHHHHHMGEVIKNRYEFVVLFDVENGNPNGDPDAGNMPRIDPESGLGIVTDVCLKRKIRNYIETVKEDEDGYKIYIKENVPLNRSDREACKSLGINDDEDKKVTEALKKLKKSDKDADIKLRDYMCRNFYDIRAFGAVMTTFVKASLNCGQVRGPVQLGFARSIDPVISQEVTITRVAITTEKDAENKSNEMGRKSIVPYGLYRVEGYISANLARKVTGFSEEDLELLWDAVINMFENDHSAARGKMAVRELIVFKHSKELGDCPAYKLFDAVKVQKNDDIQYPRKYQDYTVTINDDEIPDTVEVKRMI	not soluble

— the DeepSol protein solubility set
